Measured values: US20150030603A1 (SAMSUNG ELECTRONICS, published 2015)
Blank lines part the entries; values can stand above or below the binder they belong to.

What was measured:
BSA = biological target: T1, BSA (bovine, UniProt P02769); experiment: ELISA: coated BSA, FLAG-Ang2 0.25 µg/ml and 10D6 2 µg/ml, detected with anti-mouse IgG-HRP (OD450)
T1 construct: commercial preparation (Sigma); named on the sheet under 'Coating:'; also called bovine serum albumin (Sigma); control coating
Method: A 96-well MaxiSorp™ flat-bottom plate (Nunc) was coated with 4 μg/ml of Tie2-Fc (R&D systems) or BSA (Sigma). Then, the plate was washed five times with 0.05% (v/v) Tween-20-containing PBS (Phosphate Buffer Saline) and blocked with 1% (v/v) BSA (Bovine serum albumin; Sigma)-containing PBS at a room temperature for 2 hours. 0.25 μg/ml of Ang2 and 2 μg/ml of 10D6 antibody were added to each well of the plate, which was allowed to react at a room temperature for 2 hours and then washed five times with PBST. After that, an anti-mouse IgG antibody (Sigma) conjugated with HRP diluted in 1% (v/v) BSA-containing PBS at a ratio of 1:5,000 (v/v) was added in an amount of 100 ul to each well to react at a room temperature for 1 hour and then, the plate was washed five times with PBST. Lastly, 100 ul (microliter) of TMB substrate (Cell Signaling) was added to each well of the plate to induce color development for 3 min. and then, the reaction was ceased by the addition of 100 ul of Stop solution (Cell Signaling) and OD450 values were measured on a plate reader (Molecular Devices).

[1] = biological target: FLAG-tagged Ang2 RBD mutant at A449 (substituted with alanine (so in the source)) (human) (UniProt O15123); experiment: ELISA; 10D6 coated (1000 nM), 250 ng FLAG-tagged Ang2 RBD mutant, anti-FLAG-HRP, OD450; reference native Ang2; cell may be cut off at the left
[2] = biological target: FLAG-tagged Ang2 RBD mutant P419A (human) (UniProt O15123); experiment: as above
[3] = biological target: FLAG-tagged Ang2 RBD mutant Q418A (human) (UniProt O15123); experiment: as above
[4] = biological target: T2, recombinant hAng-2 (C-His, R&D Systems) (human, UniProt O15123 19-496); experiment: cell-based or functional assay
T2 sequence: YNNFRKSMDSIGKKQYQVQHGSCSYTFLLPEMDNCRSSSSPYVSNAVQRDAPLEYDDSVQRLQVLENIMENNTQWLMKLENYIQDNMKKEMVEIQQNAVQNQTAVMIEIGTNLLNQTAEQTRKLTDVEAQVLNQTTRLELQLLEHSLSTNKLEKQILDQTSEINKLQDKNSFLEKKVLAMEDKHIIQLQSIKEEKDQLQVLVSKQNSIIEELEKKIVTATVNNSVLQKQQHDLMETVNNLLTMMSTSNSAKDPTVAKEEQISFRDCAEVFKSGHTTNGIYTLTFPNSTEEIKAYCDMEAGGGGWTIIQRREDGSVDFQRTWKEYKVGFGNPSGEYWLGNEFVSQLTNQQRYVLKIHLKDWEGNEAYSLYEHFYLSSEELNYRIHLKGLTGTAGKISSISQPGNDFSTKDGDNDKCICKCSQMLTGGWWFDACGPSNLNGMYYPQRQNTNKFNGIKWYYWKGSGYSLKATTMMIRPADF

T1 sequence (P02769 25-607 limits assumed): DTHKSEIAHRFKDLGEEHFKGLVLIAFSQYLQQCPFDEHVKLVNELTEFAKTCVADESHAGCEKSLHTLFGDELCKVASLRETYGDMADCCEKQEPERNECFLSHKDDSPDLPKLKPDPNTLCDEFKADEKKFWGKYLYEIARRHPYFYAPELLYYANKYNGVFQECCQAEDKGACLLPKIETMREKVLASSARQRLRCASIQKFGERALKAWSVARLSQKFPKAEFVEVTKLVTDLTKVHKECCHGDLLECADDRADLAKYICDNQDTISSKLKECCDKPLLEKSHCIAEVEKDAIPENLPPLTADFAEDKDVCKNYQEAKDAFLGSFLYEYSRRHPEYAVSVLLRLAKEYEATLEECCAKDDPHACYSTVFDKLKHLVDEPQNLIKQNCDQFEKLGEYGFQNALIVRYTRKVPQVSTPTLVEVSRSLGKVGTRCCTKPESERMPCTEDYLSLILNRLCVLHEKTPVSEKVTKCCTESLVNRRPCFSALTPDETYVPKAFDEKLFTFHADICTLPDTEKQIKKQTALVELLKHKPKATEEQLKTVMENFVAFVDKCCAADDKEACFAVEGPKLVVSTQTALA

binding result (BSA): no binding (tested: 0.25 µg/ml)
B1: FLAG-tagged hAng-2 (ligand)
chain: T2 sequence
notes: not shown: FLAG tag

binding affinity (%) with mutant Ang2 against the binding affinity with the native Ang2 [1]: 7.86% | binding affinity (%) with mutant Ang2 against the binding affinity with the native Ang2 [2]: 1.08% | binding affinity (%) with mutant Ang2 against the binding affinity with the native Ang2 [3]: 8.94% | Tie2 phosphorylation effect against the control antibody RG [4]: ~8.6 fold against RG antibody | Tie2 phosphorylation level (pTyr/Tie2 ratio) in HUVEC cells, 60 nM antibody with Ang2 [4]: 180 % increase against Ang2 alone
B2: SAIT-ANG2-AB-m10D6 (antibody, V domains shown)
VH: DVQLQESGPGLVKPSQSLSLTCTVTGYSITSDYAWNWIRQFPGNKLEWMGYINYSGNTDYNPSLKSRSSITRDTSKNQFFLQLNSVTTGDTATYYCARGNFEGAMDYWGQGTSVTVSS
VL: SIVMTQTPKFLLVSAGDRVTITCKASQSVSNDVAWYQQKPGQSPKLLIYYASNRYPGVPDRFTGSGYGTDFTFTISTVQAEDLAVYFCQQDYSSPWTFGGGTKLEIK
